Consider one molecule from patent publication US20190071499A1 (published 2019).

As usually defined, the Kd is the concentration at which binding is half-saturated. Low readings indicate higher affinity, high ones lower affinity.

Experiment in all cases: SPR
In general terms: In SPR one partner is held on a chip, and binding of the other changes the refractive index at the surface.

The target of one assay is T1, human IFN-α4 (human, UniProt P05014 24-189).
T1 chain: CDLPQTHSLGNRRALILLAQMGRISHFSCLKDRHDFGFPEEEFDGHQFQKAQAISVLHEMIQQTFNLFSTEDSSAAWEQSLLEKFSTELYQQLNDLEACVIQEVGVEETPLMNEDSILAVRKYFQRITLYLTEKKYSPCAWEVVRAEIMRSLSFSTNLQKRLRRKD

The next assay has as its target human IFN-ω (human, UniProt P05000 24-195).
In another assay the target is T2, human IFN-α14 (human, UniProt P01570 24-189).
T2 chain: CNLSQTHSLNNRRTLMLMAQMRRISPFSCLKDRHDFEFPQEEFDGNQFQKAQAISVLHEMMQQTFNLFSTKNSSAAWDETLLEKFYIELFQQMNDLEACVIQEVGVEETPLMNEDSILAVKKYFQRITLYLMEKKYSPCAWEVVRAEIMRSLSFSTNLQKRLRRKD

Sequence of human IFN-ω (P05000 24-195): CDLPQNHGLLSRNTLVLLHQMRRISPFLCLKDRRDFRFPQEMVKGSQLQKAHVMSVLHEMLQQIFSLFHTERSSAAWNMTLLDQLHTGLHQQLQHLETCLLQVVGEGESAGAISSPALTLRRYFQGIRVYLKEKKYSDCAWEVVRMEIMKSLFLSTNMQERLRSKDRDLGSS

B1: 26B9 (antibody, V domains shown)
VH: QILLQESGPGLVKPTETLSLTCSVSGDSISDSSHYWAWIRQPPGKGPEWIGSVYFSSMTHYNPSLKSRVSISVDKPKNQFSLKVTSVTVADTATYYCARQALARVGAMNWFDPWGQGSLVTVSS
VL: DIIMTQSPDSLPVSLGEGVTINCKSSQSVFFTSSNKSCLAWYQQKPGKSPKLLIYWASTRQSGVPDRFRGSGSGTDFSLTITSLQAEDVAVYFCQQCQTSPPTFGGGTRLEIKR
As for B1, the Kd with human IFN-α4 came out at 0.0375 pM; in the assay with human IFN-ω, 0.125 pM; in the assay with human IFN-α14, 0.0328 pM.
